This is an account of results in the nanobody polyreactivity screen of Harvey et al. (2022).

This series in a line: yeast display, Sf9 membrane polyspecificity reagent, FACS + sequencing; frameworks hold sequencing errors. In a few lines:
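Synthetic nanobody libraries on Saccharomyces cerevisiae BJ5465 were galactose-induced for 36–48 hours, stained 1 hour at 4 °C with 10% biotinylated, detergent-solubilized Sf9 membrane reagent and enriched on streptavidin microbeads. FACS then separated cells into low and high (top ~1%) gates by anti-HA (expression) and streptavidin (reagent binding) fluorescence. Genes were colony-PCR amplified, MiSeq 2 × 250 sequenced and CDR-length filtered. A clone's polyreactivity label is that of its gate of origin.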
As for “QVQLVESGGGLVQAGGSLRLSCAASGRIFGSYTMGWYRQAPGKERELVAAISWSGGNTYYADSVKGRFTISRDNAKNTVYLLMNSQKPEDTAVYYCNALYYRPPKWYGYWGQGTQVTVSS”, the “polyreactivity (PSR sort gate)” value is on record as “high polyreactivity”.
For the sequence “QVQLVESGGGLVQAGGSLRLSCAASGITFYVYAMGSYTQAPGKEREFVAAISTRDGTTYADSEKGRFTISRDNAKNPFYLEMNSLKPVDTAVDYCAAAYYYDGQQGDFDYWGQGTQVTVSS”, the “polyreactivity (PSR sort gate)” value was “low polyreactivity”.
In the case of “QVQLVDSGGGIVQAGGSLRLSCAASGTFDAYAMGWYRQEPGKERELVASISSSGGSTYYADSVKGRFTITRDNAKNTVYLQMYSLNPEDRAVYYCAATDFWYSGYYWGKGTQVTVSS” it was “low polyreactivity”; in that of “QVQLVESGGGLVQAGGSLRLSCAASGSIFWSNAMGWYIQAPGKERELVAAITGGGTTNYADSVKGRFTISRDNAKNTVYLQMNSLKPEDTAVVYTVSSAQYDYWGQGTQVTVSS”, “low polyreactivity”.
In the case of “QVQLVESGGGLVQAGGSLRLSCAASGFIFDYYAMGWYRQAPGKERELVATISSSGGSTYYADSVKGRFTISRDNAKNTVYLQMNSLKPEDTAVYYCATGYTWVADSWEYYYWGQGTQVTVSS” it was “low polyreactivity”; in that of “QVQLVESVGGLVQAGGSLRLSCAASGSTIRYYAIAWYRQAPGKERELVAAITSSGGRTYYADSVKGRFTISRDYAKNTVYLQMNSLKPEDTAVYYCAAYAYYHTGDDYWGQGTQVTVSS”, “high polyreactivity”.
For the sequence “HAQLQESGGGLVQAGGSLRRSCAASGSIFRFSGMGWYRRAPGKERELVASIGFGSITYYADRVKGRFTISRDNANKTVYLQMNSLKPEDTAVYYCAVQVQDESWLDYWGQGTQVTVSC”, the “polyreactivity (PSR sort gate)” value is on record as “low polyreactivity”.
On to “QVQLVESGGGLVQAGGSLRLSCAASGRTILLNDMGWYRQAPGKERELVAGITRSGGSTYYADSVKGRFTISRDNAKNTVYLQMNSLKPEDNAVYYCAADFKPLYYDEYDYWGQGTQVTVSS”, for which the “polyreactivity (PSR sort gate)” value was “low polyreactivity”.
In the case of “QVQLVDSGGGLVQAGGSLRLSCAASGSTFRRNAMGWYRHAPGKERELVAAINRRGGDTYYADSVKGRFTISCDNAKNTVYLQMNSLKPEDTAVYYCAAEWQSVAFDWGGYGDDYWGQGTQVTVSS” it was “low polyreactivity”; in that of “QVQLVESGGCLVQAGGSLRLSCAASGRIFTTNAMGWYRQAPGKERELVAAITYSGGTTYYADSVKGRFTISRDNAKKTVYLQMNSLKPEDTAVYYCAADVKFSTPYDYWGQGTQVTVSS”, “low polyreactivity”.
For the sequence “QVQLVESGGGLVQAGGSLRLSCASSGPTFNEYAMAWYRQAPRKERELVARITRGGSTYYADSVKGRFTISRDNAKNTFYFQINSLIPEDTAVYEFAADLSLLYGGYWITDYDYWVQGTQVTVSS”, the “polyreactivity (PSR sort gate)” value is listed as “low polyreactivity”.
In the case of “QVQLVESGGGLVQAGGSHRLSCAASGSTFKDYAMVWYRQAPGKERELVASITESGGSTYYADSVKGRFTISRDNAKNTVYLQMNSLNPEDTAVYYCATDLIPEGSGYDYWGQGTQVTVSS” it was “low polyreactivity”; in that of “QVQLVESGGGLVQAGGSLRLSCAASGSTFHPYAMGWYRQPPGKASELVAAINWRVGSTYYADSVKGRFTISRDNAKNTVYLQMTSQIPEDTAVYYCAVSYMATLGRSRYDYWGQGTQVTVSS”, “low polyreactivity”; in that of “QVQRVESGGGLVQAGGSLRLSCAASGSTFPPYGMGWSRQAPGKERELVAAITWRGGRTYYADSVKGRFTISRDNAKNTVYLQMNSLKPEDTAVYYCAASYGPRTGYATYRYASSRYNYWGQGTQVTVSS”, “high polyreactivity”.
The entry for “QVQLVESGGGLVQAGGSLRLSCAASGRTFAINAMGWYRQAPGKERELVADITTDGSTYYADSVKGRFTISRDNAKNTVYLQMNSLKPEDTAVYYCATDSLDYFIRFKQFGYWGQGTQVTVSS” is “low polyreactivity”; for “QVQLVESGVGLVQAGGSLRLSCAASGLTFLYYAMAWLRQAPGKERELVAVISSGGRTYYADSVKGRFTISRDNAKNTVYLQMHSLKPEDTAVYYCAAYDPYYQSTFDYWGQGTQVTVSS” it is “high polyreactivity”.
In the case of “QVQLVESGGGLVQAGGSLRLSCAASGITFVGNAMGWSRQAPGKERELVAAMSSSGASTYYADSVKGRFTISRDYAKNTVYLQMNSLKPEDTAVYYCNAGWGVVIRRYPTYDYWGQGTQVTVSS” it was “high polyreactivity”.
Take “QVQLVESGGGLVQAGGSLRLSSPASGRIFITNAMGWYRQAPGKERELVASITVSGDSTYYADSVKGRFTISRDNAKNPVYLQMNSLKPEDTAVYYCAADYYALDKVLGNNYWGQGTQVTVSS”: the “polyreactivity (PSR sort gate)” value is “low polyreactivity”.
For “QVQLVESGGGLVQAGGSLRLSCAASGRIYGINVMGRYRQAPGKEMELVAAISYRTGSTYYADSVKGRFTISRDNAKNTVYLQMNSLKPEDTEVYYCAVRRPSSYSYGEDYWGQGTQVTVSS”, the “polyreactivity (PSR sort gate)” value was “high polyreactivity”.
With “QVQLVESGGGLVQAGGSLRLSCAASGSIFSYYAMGWYRQAPGKERELVAAITVRGGSTYYADSVKGRFTISRDNAKNTVYLQMNSLKPEDTGVYYCAADWLDESFSYGPYYYWGQGTQVTVSS”, the “polyreactivity (PSR sort gate)” value is “low polyreactivity”.
As to “QVQLLESGGGLVQAGGSLRLSCAASGSTFTYNAMGWYRQAPGKERELVAAISSSGGSTYYADSVKGRFTISRDNAKNTVYLQMTSLNPEDTAVYYCAKRWLYTSAFRKMDYWGQGTQVTVSS”, the “polyreactivity (PSR sort gate)” value is reported as “high polyreactivity”.
Regarding “QVQLVESGGGLVQAGGSLRLSCAASGSTFRPYAMGGYRQAPGKERELVARITGSGDSTYYADSVKGRFTISRDNAKNTVYLQMNSLKPEDTAVYYCAREFVFSLSGFDYWGQGTQVSVSS”, the “polyreactivity (PSR sort gate)” value is listed as “low polyreactivity”.
The entry for “QVQLVESGGGLVQAGGSLRLSCAASGSIFGDYAMSWYRQAPGKERELVATITWIGGSTYYADSVKGRFTISRDNAKNTVYLQMNSLKPADTAVYYCAIYMGSYRLDYWGQGPQVTVSS” is “low polyreactivity”.
As to “QVHLVESGAGLVQAGGSLRLSCAASGRVFYYYAMGWYRQAPGKEREFVATISWSGVRTYYADSVKGRFTISRDNAKNTVYLQMNSLKPEDTAVYYCNADYYSPKFPSGMNYWGQGTQVTVSS”, the “polyreactivity (PSR sort gate)” value is listed as “high polyreactivity”.
In the case of “QVQLVESGGGLVQAGGSLRLSCAASGITFYSNAMGWYRQAPGKERELVATITRGGSTYYADSVKGRFTISRDNAKNTVYLQMNSLKPEDTAVYYCAADYSYRGREYGYWGQGTQVTVSS” it was “low polyreactivity”; in that of “QVQLVESGGGLVQAGGSLRLSCAASGSTIERYAMGWYRPAPGKERELVAAIRWSGGSTYYADSVKGRFTISRDNAKNTVYLQMNSLKPEDTAVYYCAASRSNADWFDSLGQGTQVTVSS”, “high polyreactivity”.
The entry for “QVQLVESGGGLVQAGGSLRLSCAASGITSSYAMGWYRQAPGKERELVAAISRGGSTYYADSVKGRFTISRDTAKNTVYLQMNSLKPEDTAVYYCNKRRYPYGWGQGTQVTVSS” is “high polyreactivity”; for “QVQLVESAGGLVQAGGSLRLSCAASGLTYYFYPMGWYRQAPGKETELVAAINYDDGSTYYADSVKGRFTISRDNAKNTVYLQMNSLKPEDTAVYYCAADRDFRTPRLYYWGQGTQVTVSS” it is “low polyreactivity”; for “QVQLVESGGGLVQAGGSLRLSCAASGSTLAIYAMGWYRQAPGKERELVAAISGGGSTYADSVKGRFTISRDNAKNTVYLQMNSLKPEETAVYYCNADGWGDRFWSNFRFDYWGQGTQVTVSS” it is “low polyreactivity”.
On to “QVQLVESGGGLVQAGGSLRLSCAPSGFTFSYNAMGWYRQAPGKERELVAAISNSGGSTYYADSVKGRFTISRDNAKYTVYLQMNSLKPEDTAVYYCAADVAQVGYQVGVSEIYPGYEYWGQGTQVTVSS”, for which the “polyreactivity (PSR sort gate)” value is “low polyreactivity”.
For “QVQLVESVGDLVQEGGSLRLSCAASGRIFYWYAMGWYRQAPGKETELVAAITSGGSTYYADSVKGRFTISRDNAKNTVYLQMNSLKPEDTAVYYCAKPFSSNSCSHGYWGQGTQVTVSS”, the “polyreactivity (PSR sort gate)” value was “low polyreactivity”.
As to “QVQLVESGGGLVQAGGSLRLSCAASGIILDRNAMGWYRQAPGKERELVAAINSIGGSTYYADSVKGRFTISRDNAKKTVYLQMNSLKPEDTAVYYCAAPSTSSYYWGQGTQVTVSS”, the “polyreactivity (PSR sort gate)” value was “low polyreactivity”.
The entry for “QVQLVESGGGLVQAGGSLRLSCAASGIIFDYNAMGWYRQAPGKERELVASIDSGGSTNYADSVKGRFTISRDNAKNTVYLQMNSLKPEDTAVYYSNADDTTVSPWYYYYQSYYWGQGTQVTVSS” is “low polyreactivity”.
In the case of “QVQLVESGGGLVQAGGSLRLSCAASGIIFARYAMGWYRQAPGKERELVASINWTGGNTYADSVKGRFTISRDNAKNTVYLQMNSLKPEDTAVYYCARDFCPGSSDPKASISFDHWGQGTQVTVSS”, the “polyreactivity (PSR sort gate)” value is given as “low polyreactivity”.
In the case of “QVQLVESGGGLVQAGGRLRLSCAASGSIFVGYAMGWYRQAPGKERELVAAISTRGGSTYYAHSVKGRFTISRDNAKNTVYLQMNSLKPEDTAVYYSAADYLDSTYGYVYGWDDYWGQGTQVTVST” it was “low polyreactivity”; in that of “QVQHVESGGGLVQAGGSLRLSCAASGRTFRNNAMGWYRQAPGKERELVAAITSGGSTYYADSVKGRFTISRDNAKNTVYLQMNSLKPEDTAVYYCAAVPEYYEYSPYDYWGQGTQVTVSS”, “low polyreactivity”; in that of “QVQLVESGGGLVQAGGSLRLSCAASGNILFYNAMGWYRQAPGKERELVAAISRSAGSTYYADSVKGRFTISRDNAKNTVYLQMNSLKPEDTAVYYCAAQYFRRSVYWGQGTQVTVSS”, “high polyreactivity”.
In the case of “QVQLVESGGGLVQAGGSLRLSCAASGRIFHKYDMGWYRQAPGKERELVAAITTSGGSTYYADSVKGRFTISRDNAKNTVYLQMNSLKPEDTAVYYCADSWSRRERGFDYWGQGTQVTVSS”, the “polyreactivity (PSR sort gate)” value was “high polyreactivity”.
The entry for “QVQLVESGGGLVQAGGSLRLSCAASGFTFLWYGMGWYRQAPGKERELVAAISSSGGSTYYADSVKGRFTISRDNAKNTVFLQMNSLKPEDTAVYYCAVAVSNQYVRYGYWGQGTQVTVSS” is “low polyreactivity”; for “QVQLEESGGGLVQAGGSLRLSCAASGRTFALYAMGWYRQAPGKERELVASISWRGGSTYYADSVKGRFTISRDNAKNTVYLQMNSLKPEDTAVYYCAADTWSYGPLNYRLEYWGQGTQVTVSS” it is “low polyreactivity”; for “QVQLVDSGGVLVQAGGSLSLSCAASGITFPINAMGWYRQAPGKEREFVATISFSGASTYYADSVKGRFTISRDNAKNSVYLQMNSLKREDTAVYYCAARWKPPYWGRYYYWGQGTQVTVSS” it is “high polyreactivity”.
